# Experimental data reported in publication PMC3448830.
# How the values were obtained:
# Settings in all cases: other: substrate, Hanes-Woolf plots, pH 8.5, room temperature, 16 h
# [1] = system: NCc1c[nH]c(C(=O)O)c1; assay: Substrate activity for GABA-AT; type: biochemical, pig
# [2] = system: NCc1ccc(C(=O)O)[nH]1; assay: Substrate activity for GABA-AT; type: biochemical, pig
# [3] = system: NCc1ccc(C(=O)O)o1; assay: Substrate activity for GABA-AT; type: biochemical, pig
# [4] = system: NCc1ccc(C(=O)O)s1; assay: Substrate activity for GABA-AT; type: biochemical, pig
# [5] = system: NCc1coc(C(=O)O)c1; assay: Substrate activity for GABA-AT; type: biochemical, pig
# [6] = system: NCc1cocc1C(=O)O; assay: Substrate activity for GABA-AT; type: biochemical, pig
# [7] = system: NCc1csc(C(=O)O)c1; assay: Substrate activity for GABA-AT; type: biochemical, pig
# [8] = system: NCCCC(=O)O; assay: purified protein, by the assay type
substance,measurement,setting,value
GABA-AT (Sus scrofa),Km,[1],1400 ± 300 µM
same,kcat,[1],5.67e-05 ± 5e-06 s⁻¹
same,kcat/Km,[1],0.04 M⁻¹ s⁻¹
same,Km,[2],9500 ± 300 µM
same,kcat,[2],2.5e-05 ± 3.33e-06 s⁻¹
same,kcat/Km,[2],0.00267 M⁻¹ s⁻¹
same,Km,[3],2100 ± 100 µM
same,kcat,[3],0.000567 ± 6.67e-05 s⁻¹
same,kcat/Km,[3],0.267 M⁻¹ s⁻¹
same,Km,[4],6300 ± 200 µM
same,kcat,[4],0.000167 ± 5e-05 s⁻¹
same,kcat/Km,[4],0.0267 M⁻¹ s⁻¹
same,Km,[5],310 ± 70 µM
same,kcat,[5],3.83e-05 ± 1.67e-06 s⁻¹
same,kcat/Km,[5],0.123 M⁻¹ s⁻¹
same,Km,[6],2800 ± 500 µM
same,kcat,[6],1.38e-05 ± 8.33e-07 s⁻¹
same,kcat/Km,[6],0.005 M⁻¹ s⁻¹
same,Km,[7],1700 ± 300 µM
same,Km,[8],1300 ± 300 µM
same,kcat,[8],0.817 s⁻¹
same,kcat/Km,[8],643 M⁻¹ s⁻¹
